Source: US20240317884A1, “METHOD FOR ALLOWING IMMUNE CELLS INFILTRATION IN TUMORS” (Alethia Biotherapeutics Inc., priority 2021, published 2024)
Several values for one entry are separate records, joined by “and”; a condition that tells them apart may be missing. Equal values may be shown once. Entries after “also recorded” stand apart in the source; their conditions may differ.

B1: murine 16B5: murine anti-clusterin 16B5 antibody used in mouse studies; VL SEQ ID NO:7, VH SEQ ID NO:8 (antibody, V domains shown)
VH: EVQLQQSGAELVKPGASVRLSCTTSGFNIKDIYMHWVKQRPEQGLEWIGRIDPAYGNTKYDPKFQGKATITADTSSNTAYLQLSSLTSEDTAVYYCARRYDTAMDYWGQGTSVTVSS
VL: DIVMSQSPSSLAVSAGEKVTMSCKSSQSLLNSRTRKNYLAWYQQKPGQSPKLLIYWASTRESGVPDRFTGSGSGTDFTLTISSVQAEDLAVYYCKQSYNLWTFGGGTKLEFK
modifications: Murine 16B5 VH; Murine 16B5 VL

What was measured:
[1] = tested on: 4T1 mouse mammary carcinoma cells; assay: 4T1 model: count of metastatic lung nodules; type: in vivo, Balb/c mice; details: Balb/c, treatment for 5 weeks (docetaxel 10 mg/kg IP 1X/week; AB-16B5 10 mg/kg IP 2X/week), vs saline control
Method: (§1) Five groups, each consisting of 10 female Balb/c mice were assigned to this study (see Table 5 below). All animals received subcutaneous implantation of 4T1 mouse mammary carcinoma cells in the 4th inguinal mammary gland. Treatment was initiated on the day of implantation (defined as Day 1). Animals from Group 1 (Gr. 1) received IP treatment of saline vehicle control twice a week for the duration of the study. Animals from Group 2 (Gr. 2) received 10 mg/kg of docetaxel weekly for five weeks by IP administration. Animals from Group 3 (Gr. 3) received 10 mg/kg of docetaxel weekly for two weeks and 10 mg/kg of AB-16B5, twice weekly for five weeks. Animals from Group 4 (Gr. 4) received 10 mg/kg of docetaxel weekly and 5 mg/kg of 16B5 twice weekly each over the course of a five weeks treatment. Animals from Group 5 (Gr. 5) received AB-16B5 twice weekly for five weeks. On Day 36, the primary tumors were excised and on Day 37, the animals were sacrificed and the number of grossly visible metastatic nodules on the surface of the lungs was counted.

[2] = tested on: 4T1 primary tumors; assay: 4T1 model: CD45+ immune cells in primary tumors; type: in vivo, Balb/c mice; details: Balb/c, 5-week regimens (Groups 2, 4, 5), primary tumors excised at Day 16
Method: as §1
The primary tumors excised at Day 16 post implantation, were processed with collagenase and hyaluronidase and immune cells were purified by positive selection using magnetic latex beads coated with an anti-CD45 antibody. […]

[3] = tested on: 4T1 lung metastases; assay: 4T1 model: immunohistochemistry of lung metastases; type: in vivo; details: Balb/c mice, orthotopic 4T1; 10 mg/kg IP thrice a week; Day 36
Excerpt: Balb/c mice were orthotopically implanted with 5×10^5 4T1 cells in the 4th mammary fat pad. Animals received IP saline treatment thrice weekly. The primary tumor was surgically removed at Day 16 post-implantation. The animals were sacrificed at Day 36 and the lungs were excised. Tissues were fixed in paraformaldehyde and processed for paraffin embedding. Tissue sections were probed with anti-mouse CD3, anti-mouse CD8 and anti-mouse B220 antibodies. […] Results presented in FIG. 1 indicate that the 4T1 lung metastases create an immune cold microenvironment which prevents the infiltration of B and T lymphocytes in tumors. Delineated regions indicate that CD3 and CD8 T lymphocytes are restricted in the tumor margin as a consequence of EMT.
Animals bearing 4T1 tumors were treated with the AB-16B5 antibody (murine 16B5) thrice a week IP at 10 mg/kg. The primary tumor was surgically removed at Day 16 post-implantation. The animals were sacrificed at Day 36 and the lungs were excised. Tissues were fixed in paraformaldehyde and processed for paraffin embedding. Tissue sections were probed with anti-mouse CD3, anti-mouse CD8 and anti-mouse B220 antibodies.

[4] = tested on: 4T1 tumor cells; assay: INFγ secretion of tumor infiltrating lymphocyte cultures co-cultured with 4T1 cells (ELISA); type: cell-based, Balb/c mice; details: 100,000 lymphocytes from lung metastatic nodules with 100,000 4T1 cells overnight, individual animals, AB-16B5 10 mg/kg IP twice weekly ± docetaxel 10 mg/kg IP weekly
Method: Balb/c mice were orthotopically implanted with 5×10^5 4T1 cells in the 4th mammary fat pad. Animals received intraperitoneal (IP) AB-16B5 (murine 16B5) 10 mg/kg twice weekly in combination with IP docetaxel 10 mg/kg weekly (Group 15: animals 1501, 1502 and 1503) or IP AB-16B5 10 mg/kg twice weekly (Group 25: […]). The primary tumor was surgically removed at Day 16 post-implantation. The animals were sacrificed at Day 36 and the lungs were excised and each visible lung metastasis was carefully dissected. Each visible metastatic nodule, if any, was excised and processed for a rapid expansion of tumor infiltrating lymphocyte protocol. The metastatic nodules were sectioned into small pieces of 2-3 mm edge that were individually grown in 24 well plates containing culture medium supplemented with FBS, IL2, IL7, ITS (1,000 U/mL IL2, 2.0 ng/mL IL7 and 1× insulin-transferrin-selenium cocktail (Gibco 41400-045)).
After three weeks in culture, 100,000 cells were taken from each of the lymphocyte cultures (six cultures corresponding to three animals from Group 15 and three animals from Group 25) and placed in culture with 100,000 4T1 tumor cells. After overnight co-culture, the supernatant was recovered for INFγ quantification by ELISA.

Molecule	metastatic lung nodules / therapeutic effect on lung metastases [1]	CD45+ immune cells in primary tumors [2]	infiltration of lung metastases with T cells [3]	lung metastases (number and size) [3]	plasmocytes penetration in tumors [3]	INFγ [4]
CC(=O)O[C@@]12CO[C@@H]1C[C@H](O)[C@@]1(C)C(=O)[C@H](O)C3=C(C)[C@@H](OC(=O)[C@H](O)[C@@H](NC(=O)OC(C)(C)C)c4ccccc4)C[C@@](O)([C@@H](OC(=O)c4ccccc4)[C@H]21)C3(C)C [docetaxel]	as many metastatic lung nodules as the saline control group; also recorded: relatively ineffective	very few CD45+				
B1	less metastatic lung nodules	more immune cells	densely infiltrated with CD3 and CD8 T cells	fewer and much smaller lung metastases	evidence of plasmocytes penetration	8538.8 pg/mL and 3770.0 pg/mL and 4538.8 pg/mL
